Reference: patent USRE49477 (THOMAS JEFFERSON UNIVERSITY, dated 2023)

Experiments:
[1] = target: T1, human procollagen I α2 chain (human, UniProt P08123 23-1366); experiment: Western blot, procollagen I chains on membrane, anti-FLAG-HRP detection
T1 construct: The separated chain as it stood on the Western blot membrane; With the chimeric IgG, a partially degraded form was also positive; also called Pro-α2; collagen α2-chain

[2] = target: T1, human procollagen I α2 chain; experiment: Western blot, procollagen I chains on membrane, anti-human γ-HRP detection
[3] = target: T1, human procollagen I α2 chain; experiment: Western blot, procollagen I chains on membrane, anti-His-HRP detection

T1 sequence (P08123 23-1366 limits assumed): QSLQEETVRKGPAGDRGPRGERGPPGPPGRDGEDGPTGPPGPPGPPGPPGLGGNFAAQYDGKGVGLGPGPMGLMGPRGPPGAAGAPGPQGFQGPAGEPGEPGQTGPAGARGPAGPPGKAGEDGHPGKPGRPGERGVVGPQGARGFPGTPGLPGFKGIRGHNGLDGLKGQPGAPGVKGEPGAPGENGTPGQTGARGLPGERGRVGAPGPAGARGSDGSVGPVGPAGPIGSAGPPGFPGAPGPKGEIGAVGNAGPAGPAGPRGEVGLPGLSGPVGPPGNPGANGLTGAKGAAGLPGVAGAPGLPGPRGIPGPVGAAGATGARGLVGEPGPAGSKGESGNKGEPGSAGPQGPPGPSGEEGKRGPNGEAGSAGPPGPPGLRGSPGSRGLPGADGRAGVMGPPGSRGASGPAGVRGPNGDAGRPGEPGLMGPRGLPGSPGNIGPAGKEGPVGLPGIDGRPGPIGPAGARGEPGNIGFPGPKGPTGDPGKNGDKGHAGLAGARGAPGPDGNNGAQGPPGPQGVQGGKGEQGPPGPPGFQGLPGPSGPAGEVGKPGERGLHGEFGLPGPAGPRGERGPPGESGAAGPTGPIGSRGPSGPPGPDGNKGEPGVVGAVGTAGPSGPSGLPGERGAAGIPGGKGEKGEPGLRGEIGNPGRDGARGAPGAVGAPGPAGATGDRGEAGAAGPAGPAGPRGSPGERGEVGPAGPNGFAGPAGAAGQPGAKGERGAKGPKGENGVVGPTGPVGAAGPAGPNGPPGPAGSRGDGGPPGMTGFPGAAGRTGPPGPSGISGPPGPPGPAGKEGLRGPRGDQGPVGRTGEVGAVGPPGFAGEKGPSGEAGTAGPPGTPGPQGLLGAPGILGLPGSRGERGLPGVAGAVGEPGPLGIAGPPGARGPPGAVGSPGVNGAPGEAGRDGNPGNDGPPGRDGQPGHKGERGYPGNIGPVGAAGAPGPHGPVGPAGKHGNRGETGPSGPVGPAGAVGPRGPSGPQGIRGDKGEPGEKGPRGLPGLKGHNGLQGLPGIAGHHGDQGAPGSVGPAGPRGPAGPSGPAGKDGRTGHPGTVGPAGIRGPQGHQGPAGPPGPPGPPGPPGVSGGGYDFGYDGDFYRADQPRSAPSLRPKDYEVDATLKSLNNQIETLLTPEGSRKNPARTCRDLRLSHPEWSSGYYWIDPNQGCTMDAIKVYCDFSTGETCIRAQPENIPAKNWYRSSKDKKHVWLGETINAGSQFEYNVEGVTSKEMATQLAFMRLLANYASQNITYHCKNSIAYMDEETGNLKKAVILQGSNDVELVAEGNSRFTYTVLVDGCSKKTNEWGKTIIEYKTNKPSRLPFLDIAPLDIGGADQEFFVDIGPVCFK

B1: bacterial-derived scFv variant (anti-α2Ct single chain antibody, FLAG-tagged) (scFv)
scFv: MDIVMSQSPSSLAVSAGEKVTMSCKSSQSLLNSRTRKNNLAWYQQKPGQSPKLLIYWASTRESGVPDRFTGSGSGTDFTLTISSVQAEDLAVYYCKQSYNLWTFGGGTKLEIKVDGGGGSGGGGSGGGGSLEQIQLVQSGPELKKPGETVKISCKASGYTFTDYPLHWVKQAPGKGLQWMAWINTETGEPTYADDFTGRFAFSLETSASTAYLQINNLKNEDTATYFCVRGYYYYWGQGTTLSVSSDYKDDDDK
[1]
  binding result: binds

B2: mouse-human chimeric IgG consisting of the mVH-hγ and mVL-hκ chains (antibody, V domains shown)
VH: QIQLVQSGPELKKPGETVKISCKASGYTFTDYPLHWVKQAPGKGLQWMAWINTETGEPTYADDFTGRFAFSLETSASTAYLQINNLKNEDTATYFCVRGYYYYWGQGTTLSVSS
VL: DIVMSQSPSSLAVSAGEKVTMSCKSSQSLLNSRTRKNNLAWYQQKPGQSPKLLIYWASTRESGVPDRFTGSGSGTDFTLTISSVQAEDLAVYYCKQSYNLWTFGGGTKLEIKR
notes: The constant regions are human IgG1 γ (pFUSE-CHIg-hG1) and human κ (pFUSE2-CLIg-hk); The antibody was expressed in CHO cells and purified on Protein-L; also called chimeric antibody; CHO-IgG
[2]
  binding result: binds

B3: His-tagged yeast-derived A_L_K scFv variant (scFv)
scFv: QIQLVQSGPELKKPGETVKISCKASGYTFTDYPLHWVKQAPGKGLQWMAWINTETGEPTYADDFTGRFAFSLETSASTAYLQINNLKNEDTATYFCVRGYYYYWGQGTTLSVSSGGGGSGGGGSGGGGSGGGGSGGGGSGGGGSDIVMSQSPSSLAVSAGEKVTMSCKSSQSLLNSRTRKNNLAWYQQKPGQSPKLLIYWASTRESGVPDRFTGSGSGTDFTLTISSVQAEDLAVYYCKQSYNLWTFGGGTKLEIKRHHHHHH
notes: It was secreted from yeast using pPIC-9K; also called yeast scFv variant
[3]
  binding result: binds
